From publication PMC6838142, “Nano-Antagonist Alleviates Inflammation and Allows for MRI of Atherosclerosis” (Nanotheranostics, 2019)
Entries after “also recorded” stand apart in the source; their conditions may differ.

Legend:
[1] = system: RAW cells
[2] = system: caspase 3 and heme oxygenase (HO-1) proteins in RAW cells; test: Immunoblot of active caspase 3 and HO-1; format: cell-based, mouse; conditions: 1 µM nanoparticles, 3 h
Protocol: Immunoblotting was performed as previously described with the following modifications. Briefly, cell lysates were obtained in SDS lysis buffer consisting of 2% SDS, 50 mM Tris-HCl (pH 6.8), 100 mM DTT, 5% Ficoll 400, 0.0001% bromophenol blue and a cocktail of protease inhibitors. Lysates were sonicated on ice before heating at 97 °C for 7 min to completely denature the protein. Protein concentration was determined using IR spectroscopy (which is insensitive to high SDS and DTT concentrations) with a Millipore DirectDetect spectrometer. Lysates were equally loaded at 10-15 µg per lane on BioRad TGX Criterion gels (4-15%) and resolved at 300 V in Tris-Glycine running buffer. Proteins were transferred on nitrocellulose membranes using the BioRad TransBlot turbo according to the manufacturer's instructions. Membranes were blocked in fish serum (Aqua Block) or 5% nonfat dry milk in TBS-T (0.05% Tween 20) and probed overnight at 4 °C with primary antibodies as indicated in Supplementary Table S1. The membranes were washed in TBS-T and incubated with secondary antibodies for 1 h at room temperature. After washing, semi-quantitative visualization of the proteins of interest was enabled using an enhanced chemiluminescence reagent as previously described and the Azure C400 western blot imaging system.
N-acetylcysteine (NAC) served as an antioxidant control. β-Actin was used as a loading control. B) Gene expression analysis in RAW cells treated with 1 µM of vehicle, CCTV and VTCC (peptide nanoparticle control) for 24 h. mRNA expression of mannose receptor (Mrc1), nitric oxide synthase 2 (Nos2), tumor necrosis factor (Tnf), interleukin-1beta (Il1b), and interleukin-6 (Il6) were analyzed. C) Cytokines in cell culture supernatants were analyzed as indicated. D) Schematic representation of transcriptional activation of primary and secondary inflammatory response to lipopolysaccharide (LPS). E) Immunoblot analysis of dose-dependent suppression of IL-1β and HO-1 production by CCTV with and without stimulation by 100 ng/mL LPS for 16 h in bone marrow derived macrophages (BMDMs). GAPDH served as a loading control. F) Chemotaxis assays in bone marrow derived monocytes treated with 5 µM vehicle, CCTV, VTCC or left untreated. Chemotaxis was stimulated by introducing a gradient of recombinant mouse CCL2. Forty (out of 150-300) cell migration tracks are presented for simplicity. Metrics of chemotactic behaviour i.e. velocity, distance travelled, and chemotactic index were quantified as presented in bar graphs. G) BMDMs were pre-treated for 6 h with 5 µM CCTV or VTCC followed by 500 nM CCL2 for the indicated times. […] P values are calculated by t-test and error bars are standard errors of three independent experiments.

[3] = system: bone marrow derived monocytes, CCL2-induced migration; test: CCL2-induced chemotaxis assay; format: cell-based, mouse; conditions: pre-treated BMDMs; 100 nM recombinant mouse CCL2, 12 h; nanoparticles
Protocol: Chemotaxis assays were performed using IBIDI µ-Slides as per the manufacturer's instructions and the recently published guide detailing the protocol. […] Cells were allowed to attach for 3 h at 37 °C, washed with 0.2 mL warm cell culture medium using a pipette tip inserted into µ-channel port, following which 100 nM recombinant mouse CCL2 protein was added as a chemoattractant (or omitted in control slides) to the one of side reservoirs. Cell movement was recorded for a duration of 12 h via phase video-microscopy in a stage-top humidified incubator at 37 °C and 5% CO2 atmosphere. Analysis was performed using the ImageJ IBIDI tracking tool, available free of charge at https://ibidi.com.

[4] = Dynamic light scattering of nanoparticles; format: physicochemical; conditions: Malvern Zetasizer Nano S; for Size (Mean Z average): hydrodynamic diameter
Protocol: Lipid-peptide conjugates were synthesized from either DSPE-PEG-CO2H or DSPE-PEG-MAL using peptides derived using SVM prediction platform and listed in Supplementary Table S2. The peptides were conjugated to either the N-terminus or via sulfhydryl groups as depicted in Figure 1E. Lipid films from both PEGylated derivatives were prepared by evaporation under nitrogen gas, from 1 µM of lipid solution in chloroform. Tetrapeptides were custom-synthesized by Genscript. 5 µmol of peptide solutions in water:dimethylformamide (1:1) were prepared via a brief bath sonication. […] PEGylated lipids prepared above were sonicated (10 min, 300 W, room temperature) in 5 mL of MES (pH 6, 100 mM) for DSPE-PEG-CO2H and in 5 mL of HEPES buffered saline [HBS] (pH 7.2, 100 mM, 154 mM NaCl) for DSPE-PEG-MAL. Next, DSPE-PEG-CO2H was activated by the addition of 2 mg of EDC (20 mg/mL in water) and 5 mg of sulfo-NHS (10 mg/mL in water). This was sonicated at 15 W for 10 min in a temperature controlled bath at 30 °C. Then, peptide solutions/suspensions were added to the resulting DSPE-PEG-NHS or previously prepared DSPE-PEG-MAL and stirred at room temperature for 4 h. The reaction with DSPE-PEG-NHS was quenched by the addition of 100 µL of 0.5 M of NH2OH in HBS, plus 1 mM EDTA. The reaction with DSPE-PEG-MAL was quenched by the addition of 7 µL of 2-mercaptoethanol. The solution was freezed at -80 °C and lyophilized. Next, lipid-peptide conjugates were extracted with chloroform (3 x 2 mL) and centrifuged at 4000 g x 5 min. Combined extract supernatants were evaporated under N2 gas and sonicated (10 min, 100 W) in 0.5-1 mL of water at room temperature. This raw product was purified by size […] chromatography as follows. Millipore Vantage column (10 x 500 mm) was packed with Sepharose 4B in deionized water under flow rate of 0.5 mL/min. Next, 0.5 mL of raw nanoparticle preparation was injected into the column and 0.5 mL fractions were collected at 0.5 mL/min simultaneously with UV detection at 190, 214, 250 and 280 nm using the Bio Rad DuoFlow system equipped with BioLogic QuadTec UV/Vis detector. See Supplementary Figure S2 for representative chromatograms. Combined fractions 15-31 were frozen and lyophilized. Particles used in signalling In vitro work were prepared by reconstitution of lyophilizates in PBS or HBS buffer via sonication. Particles used in reporter, flow cytometry and microscopy experiments were prepared by addition of 1% (by weight) of Rhodamine-PE in ethanol followed by reconstitution as described above. Particles used in magnetic resonance imaging (MRI) and time-resolved fluorescence (TRF) assays were prepared by addition of 10-20% (by weight) of gadolinium or europium chelate-lipids followed by reconstitution as above. Gadolinium-DTPA (18:0 PE-DTPA) was obtained from Avanti Polar Lipids and europium cryptate-NHS was obtained from Aat Bioquest (Supplementary Table S1). Europium cryptate-NHS was further conjugated to phosphatidylethanolamine (PE) to obtain Eu-cryptate-PE according to published and well established protocols. To confirm peptide conjugation, the powder was reconstituted in 1 mL of chloroform and analyzed with TLC (eluent chloroform:methanol:water 65:25:4) detecting with Molybdenum blue (Supplementary Figure S3A) or Dragendorff reagent (Supplementary Figure S3B). Nanoparticles were characterized by dynamic light scattering using Malvern Zetasizer Nano S (Supplementary Table S3). The presence of the peptide bond (N-H) and aliphatic C-H and C-C stretches (lipids) was confirmed by infrared (IR) spectroscopy. Nanoparticles were isolated as a homogeneous population (peak) in gel-filtration (see above) and were used without additional purification.

[5] = system: F4/80-positive plaque macrophages; test: Immunohistochemistry / plaque macrophage co-staining; format: in vivo, mouse; conditions: rhodamine signal, 24 h after injection
Protocol: Twenty-four hours after nanoparticle injection (see above), mice were euthanized and abdominal aortas were isolated and embedded in Optimal Cutting Temperature compound. After cryotome-sectioning, resulting in 20-30 slides per mouse, 15 slides were sent to Ohio State laser capture microdissection core lab for capture and analysis. The rest of the slides were processed as follows: after fixation in methanol:acetone 50:50 at -20 °C, slides were hydrated in PBS, blocked for 30 min in fish serum (Aqua Block) and stained for 1 h with primary antibodies against F4/80 followed washing and staining with HRP-conjugated secondary antibody for 30 min. DAB peroxidase kit was then used as per manufacturer's instructions followed by mounting. DAB and antibody staining (but not wash steps) was omitted in slides designated for nanoparticle fluorescence visualization. Nanoparticles fluorescence was visualized with Zeiss 510 LSM-meta confocal microscope and 20x objective. DAB F4/80 staining was visualized with Nikon FN1 microscope and same power objective.

[6] = system: interleukin-1 beta (IL-1β); conditions: CANTOS clinical trial, cited from earlier work
Source text: Inflammation is a process of immune system activation that is often accompanied by increased migration of immune cells to a site of injury or disease. Inflammation-driven immune cell migration is orchestrated via chemokine receptor-ligand pairs that are ubiquitously expressed in innate immune cells and are hyperactivated in many pathologies.

CCTV [N-term CCTV]
apoptosis and cell death [1]: significant apoptosis and cell death
active (cleaved at Asp175, p19/17) caspase 3 [2]: upregulation; also recorded: significant apoptosis-associated caspase-3 activity
heme oxygenase-1 (HO-1) levels [2]: upregulation; also recorded: increased

VTCC
CCL2-induced monocyte migration [3]: not seen with VTCC
Mean Polydispersity Index (PDI) ([4]; listed as C3): 0.148
Size (Mean Z average) ([4]; listed as C3): 167 nm
co-staining with F4/80 in plaque [5]: not VTCC rhodamine signal

VTCC [A5]
apoptosis and cell death [1]: significant apoptosis and cell death
Mean Polydispersity Index (PDI) [4]: 0.141
Size (Mean Z average) [4]: 76 nm
active (cleaved at Asp175, p19/17) caspase 3 ([2]; listed as N-term VTCC): upregulation
heme oxygenase-1 (HO-1) levels ([2]; listed as N-term VTCC): upregulation

canakinumab: interleukin-1 beta (IL-1β) neutralizing monoclonal antibody
cardiovascular events ([6]; cardiovascular disease): a reduction in cardiovascular events
risk of death from infection and sepsis [6]: significantly increased risk of death from infection and sepsis
